In US20040235710A1, “Pre-mixes of glp-1 and basal insulin” (published 2004):
Numbering of substitutions follows the chain as printed.

B1: Val^8-Tyr^16-GLP-1(7-37)OH (peptide)
peptide: HVEGTFTSDYSSYLEGQAAKEFIAWLVKGRG
B2: Val^8-Tyr^12-GLP-1(7-37)OH (peptide)
peptide: B1 peptide with F6Y, Y10V
B3: Val^8-Tyr^16-Trp^19-Glu^22-GLP-1(7-37)OH (peptide)
peptide: B1 peptide with Y13W, G16E
B4: Val^8-Glu^22-Ile^25-GLP-1(7-37)OH (peptide)
peptide: B1 peptide with Y10V, G16E, A19I
B5: Val^8-Phe^19-Glu^22-GLP-1(7-37)OH (peptide)
peptide: B1 peptide with Y10V, Y13F, G16E
B6: Val^8-Asp^9-Ile^11-Tyr^16-Glu^22-GLP-1(7-37)OH (peptide)
peptide: B1 peptide with E3D, T5I, G16E
B7: Val^8-Trp^19-Glu^22-GLP-1(7-37)OH (peptide)
peptide: B1 peptide with Y10V, Y13W, G16E
B8: Val^8-Phe^18-Glu^22-GLP-1(7-37)OH (peptide)
peptide: B1 peptide with Y10V, S12F, G16E
B9: Val^8-Lys^18-Glu^22-GLP-1(7-37)OH (peptide)
peptide: B1 peptide with Y10V, S12K, G16E
B10: Val^8-Glu^22-Ile^27-GLP-1(7-37)OH (peptide)
peptide: B1 peptide with Y10V, G16E, E21I
B11: Val^8-Glu^22-Leu^25-GLP-1(7-37)OH (peptide)
peptide: B1 peptide with Y10V, G16E, A19L
B12: Val^8-Ile^16-Glu^22-GLP-1(7-37)OH (peptide)
peptide: B1 peptide with Y10I, G16E
B13: Val^8-Phe^20-Glu^22-GLP-1(7-37)OH (peptide)
peptide: B1 peptide with Y10V, L14F, G16E
B14: Val^8-Phe^16-Glu^22-GLP-1(7-37)OH (peptide)
peptide: B1 peptide with Y10F, G16E
B15: Val^8-Trp^16-Glu^22-Ile^33-GLP-1(7-37)OH (peptide)
peptide: B1 peptide with Y10W, G16E, V27I
B16: Val^8-Ile^18-Glu^22-GLP-1(7-37)OH (peptide)
peptide: B1 peptide with Y10V, S12I, G16E
B17: Val^8-Trp^16-Glu^22-Val^25-Ile^33-GLP-1(7-37)OH (peptide)
peptide: HVEGTFTSDWSSYLEEQAVKEFIAWLIKGRG

What follows are molecules tested against T1, human GLP-1 receptor (human, UniProt P43220) (assay: not given).

| Molecule | GLP-1 receptor activation relative to Val^8-GLP-1(7-37)OH (relative potency) |
| --- | --- |
| Val^8-Cys^16-Lys^26-GLP-1(7-37)OH (peptide) | 4.2 |
| Val^8-Cys^16-Lys^26-Arg^34-GLP-1(7-37)OH (peptide) | 1.9 |
| Val^8-Val^16-GLP-1(7-37)OH (peptide) | 1.1 |

What follows are molecules tested against T1, human GLP-1 receptor (assay: cell-based or functional assay).

| Molecule | GLP-1 Receptor Activation (relative to GLP-1(7-37)OH) [relative potency] |
| --- | --- |
| B1 | 1.18 |
| B2 | 0.81 |

Molecular target: T1, human GLP-1 receptor
Assay: cell-based or functional assay
Remark: another data set of the same source

| Molecule | GLP-1 receptor activation relative to Val^8-GLP-1(7-37)OH [relative potency] |
| --- | --- |
| B1 | 2.5 |
| B3 | 3.5 |
| B4 | 3.1 |
| B5 | 1.5 |
| B6 | 4.3 |
| B7 | 3.2 |
| B8 | 2 |
| B9 | 2.5 |
| B10 | 2 |
| B2 | 1.7 |
| B11 | 2.8 |
| B12 | 3.3 |
| B13 | 2.7 |
| B14 | 2.3 |
| B15 | 4.1 |
| B16 | 4 |
| B17 | 5 |
